Source: publication PMC2572732 (2008)
Non-standard residues stand in square brackets, D forms with d. No end group written: not given here. pY = N[C@@H](Cc1ccc(OP(=O)(O)O)cc1)C(=O)O

Key:
[1] = target: isolated Fes SH2 domain, G463V (mutant G/V) (human, UniProt P07332-1 460-549, G463V (mutant G/V)); test: FP
[2] = target: isolated Fes SH2 domain, wild type (human, UniProt P07332-1 460-549); test: FP
[3] = target: isolated Fes SH2 domain, E469K/E472K (mutant EE/KK) (human, UniProt P07332-1 460-549, E469K | E472K); test: FP
[4] = target: human Fes SH2-kinase unit (residues I448 to the C terminus), unphosphorylated (human, UniProt P07332-1 448-822); test: FP; 1 mM ATP and 5 mM MgCl2
Sequence of human Fes SH2-kinase unit (residues I448 to the C terminus), unphosphorylated (P07332 448-822): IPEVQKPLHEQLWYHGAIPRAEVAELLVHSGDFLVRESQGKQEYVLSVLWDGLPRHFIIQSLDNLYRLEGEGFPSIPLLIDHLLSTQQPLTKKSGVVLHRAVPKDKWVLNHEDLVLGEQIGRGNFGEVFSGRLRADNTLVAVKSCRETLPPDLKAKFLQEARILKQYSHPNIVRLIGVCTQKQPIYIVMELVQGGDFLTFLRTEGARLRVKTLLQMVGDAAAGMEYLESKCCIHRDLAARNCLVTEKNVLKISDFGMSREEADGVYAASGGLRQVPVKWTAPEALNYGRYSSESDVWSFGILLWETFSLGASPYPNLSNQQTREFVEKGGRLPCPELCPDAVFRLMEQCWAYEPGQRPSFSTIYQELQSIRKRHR

Sequence of isolated Fes SH2 domain, E469K/E472K (mutant EE/KK) (P07332 460-549 E469K/E472K): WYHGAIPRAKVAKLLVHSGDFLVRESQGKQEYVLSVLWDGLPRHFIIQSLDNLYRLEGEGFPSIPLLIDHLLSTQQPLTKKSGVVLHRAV
Sequence of isolated Fes SH2 domain, wild type (P07332 460-549): as the sequence (P07332 460-549 E469K/E472K) above, with K10E, K13E counted along it
Sequence of isolated Fes SH2 domain, G463V (mutant G/V) (P07332 460-549 G463V): as the sequence (P07332 460-549 E469K/E472K) above, with G4V, K10E, K13E counted along it

- Kd [1]: ~400 nM
- Kd [2]: ~400 nM
- Kd [3]: ~400 nM
- Kd [4]: ~400 nM
Binder: V[pY]EPVSY [pTyr-containing peptide from ezrin (VpYEPVSY)]
